Experimental findings from patent US20040131678A1, “Resorbable bone cement containing active agents” (priority 2001, published 2004) are described below.

Data set [1] can be described thus: Release kinetics of bone growth factor and antimicrobial peptide from cement pellets into culture medium. Type of data set: physicochemical. Particulars: for cumulative release of TGFβ, of the original amount mixed in the cement: ELISA. The procedure:
The release kinetics of the bone growth factor and of the antimicrobial peptide from bone substitute have been determined as follows:
In the release experiments the cement powder (40 mg) was mixed on a glass plate with TGFβ-containing liquid (13.3 μl), giving a paste of 53 mg cement with 133 ng TGFβ and 250 μg DHVAR 5. After 1 min of mixing the cement paste was applied into a Teflon mould with a diameter of 5 mm and measuring 1 mm in height. After 2 min the cement pellets were removed from the mould and added to the wells of 12-well culture plates (Costar, Cambridge, Mass., USA). Complete culture medium (Dulbecco's modified Eagle's medium (DMEM, Gibco-BRL Life Technologies Ltd. Paisley, UK) with 10% fetal bovine serum (FBS; Gibco) was added at 1 ml per well, to wells containing a TGFβ DHVAR5 enriched cement pellet as described above. The multiwell plates were incubated at 37° C. in 5% CO2 and 95% humidity. Culture medium was renewed completely at suitable time intervals (0.5, 1, 2, 4, 24, 48 hr and 1, 2, 4 and 8 weeks), and the medium samples were stored at −20° C. until used for TGFβ and DHVAR 5 determination. TGFβ was determined in the collected culture medium samples using a commercially available enzyme-linked immunosorbant assay (ELISA) (Promega, Madison, Wis., USA). A few cement pellets were crushed in the well with a mortar at 48 hr, after removal of the medium. The fragments were incubated in fresh medium for 1 hr; medium was then removed and stored for DHVAR5 and TGFβ determination. The amount of DHVAR5 released was determined by subjecting medium samples to capillary zone electrophoresis. Biological activity against S. aureus was confirmed in a standard killing assay. TGFβ was assayed by standard immunological analysis and by examination of the potency to promote cell growth as described above. The release of TGFβ from a cement pellet that incorporated TGFβ and DHVAR5 (133 ng TGFβ and 250 μg DHVAR 5 in 53 mg cement) at the time of setting of the cement, is shown in FIGS. 3 and 4 respectively. A rapid TGFβ release was found in the first 4 hr followed by a much slower release. The cumulative release found after 4 hr was 0.5% of the original amount of TGFβ mixed in the cement and increased to 1% after 48 hr. Release of TGFβ continued slowly hereafter, with maximal 0.1% released during the next 8 weeks (data not shown).
Similar results were obtained with peptides of Seq. ID Nos. 1-3, 5-7.
A general note: In an ELISA, binding on a coated surface is turned into a signal by an enzyme label.

Another data set relates to S. aureus. Put plainly: Standard killing assay of released peptide. It is filed as cell-based. As to conditions: medium samples from release experiment. The procedure: In the release experiments the cement powder (40 mg) was mixed on a glass plate with TGFβ-containing liquid (13.3 μl), giving a paste of 53 mg cement with 133 ng TGFβ and 250 μg DHVAR 5. After 1 min of mixing the cement paste was applied into a Teflon mould with a diameter of 5 mm and measuring 1 mm in height. After 2 min the cement pellets were removed from the mould and added to the wells of 12-well culture plates (Costar, Cambridge, Mass., USA). Complete culture medium (Dulbecco's modified Eagle's medium (DMEM, Gibco-BRL Life Technologies Ltd. Paisley, UK) with 10% fetal bovine serum (FBS; Gibco) was added at 1 ml per well, to wells containing a TGFβ DHVAR5 enriched cement pellet as described above. The multiwell plates were incubated at 37° C. in 5% CO2 and 95% humidity. Culture medium was renewed completely at suitable time intervals (0.5, 1, 2, 4, 24, 48 hr and 1, 2, 4 and 8 weeks), and the medium samples were stored at −20° C. until used for TGFβ and DHVAR 5 determination. TGFβ was determined in the collected culture medium samples using a commercially available enzyme-linked immunosorbant assay (ELISA) (Promega, Madison, Wis., USA). A few cement pellets were crushed in the well with a mortar at 48 hr, after removal of the medium. […] The amount of DHVAR5 released was determined by subjecting medium samples to capillary zone electrophoresis. […]

As to “LLLFLLKKRKKRKY [DHVAR-5, anti-microbial peptide, synthetic derivative based on histatin 5 carboxyterminal]”, the “antimicrobial peptide released from the cement material” value in data set [1] (after 4 days) is “more than 80%”. The “release of DHVAR 5 from the cement material” value in data set [1] (within 48 hours, capillary zone electrophoresis, DMEM with 10% FBS, 37° C.) came out at 70%. Besides, in the data set with S. aureus, the “Biological activity against S. aureus of released peptide” value is reported as “confirmed”.

Take TGFβ: the “cumulative release of TGFβ, of the original amount mixed in the cement” value in data set [1] (after 4 hr, cement pellet 133 ng TGFβ and 250 μg DHVAR 5 in 53 mg cement, DMEM with 10% FBS, 37° C.) is 0.5%; in data set [1] (after 48 hr, same pellet, DMEM with 10% FBS, 37° C.), 1%. For the same substance, the “TGFβ released during the next 8 weeks” value in data set [1] (after the first 48 hr, maximal, data not shown) is given as not above 0.1%. Moreover, the “TGFβ released within 1 hr after fragmentation” value in data set [1] (pellets fragmented at 48 hr, fresh medium 1 hr, data not shown) was “approximately 0.5%”.

For gentamicin [reference compound], the “release kinetics from cement” value in data set [1] (in a similar test) was “incomplete and slow release kinetics”.
